Measurements: patent US20250262210A1 (TRUSTEES OF COLUMBIA UNIVERSITY IN THE CITY OF NEW YORK, published 2025)

T1: LZTR1 R810W-FLAG (human, UniProt Q8N653 1-840)
T1 construct: Stably expressed in U87 cells by lentivirus; also called LZTR1-FLAG-R810W; LZTR1 RW; not shown: FLAG tag
T1 sequence (looked up): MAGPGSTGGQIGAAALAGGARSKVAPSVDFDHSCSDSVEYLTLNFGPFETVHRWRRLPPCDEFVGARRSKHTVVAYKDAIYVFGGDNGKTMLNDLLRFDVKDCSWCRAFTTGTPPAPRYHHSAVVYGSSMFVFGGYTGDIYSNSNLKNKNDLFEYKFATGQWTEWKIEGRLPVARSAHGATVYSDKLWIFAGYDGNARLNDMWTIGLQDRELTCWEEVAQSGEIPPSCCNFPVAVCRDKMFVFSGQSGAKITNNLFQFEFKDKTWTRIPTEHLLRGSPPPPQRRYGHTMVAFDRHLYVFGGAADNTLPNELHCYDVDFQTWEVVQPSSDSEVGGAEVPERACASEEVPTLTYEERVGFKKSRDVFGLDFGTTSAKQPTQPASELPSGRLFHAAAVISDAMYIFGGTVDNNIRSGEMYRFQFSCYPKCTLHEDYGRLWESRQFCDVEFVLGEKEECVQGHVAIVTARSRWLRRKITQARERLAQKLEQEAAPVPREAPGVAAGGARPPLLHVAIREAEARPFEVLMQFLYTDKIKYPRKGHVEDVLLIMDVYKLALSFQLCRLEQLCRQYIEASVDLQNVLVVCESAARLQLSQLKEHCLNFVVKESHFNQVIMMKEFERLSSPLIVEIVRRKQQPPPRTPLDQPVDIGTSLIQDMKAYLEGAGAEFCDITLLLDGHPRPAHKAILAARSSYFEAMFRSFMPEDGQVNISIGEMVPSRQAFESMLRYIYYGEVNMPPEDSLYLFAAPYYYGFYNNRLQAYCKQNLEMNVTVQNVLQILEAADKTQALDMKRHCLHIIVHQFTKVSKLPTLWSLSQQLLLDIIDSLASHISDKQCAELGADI

T2: LZTR1-FLAG (human, UniProt Q8N653 1-840)
T2 construct: Expressed in HEK 293T, HeLa or U87 cells; used as cell lysate; also called LZTR1 wild type-FLAG; LZTR1 WT; not shown: FLAG tag at the C-terminus
T2 sequence (looked up): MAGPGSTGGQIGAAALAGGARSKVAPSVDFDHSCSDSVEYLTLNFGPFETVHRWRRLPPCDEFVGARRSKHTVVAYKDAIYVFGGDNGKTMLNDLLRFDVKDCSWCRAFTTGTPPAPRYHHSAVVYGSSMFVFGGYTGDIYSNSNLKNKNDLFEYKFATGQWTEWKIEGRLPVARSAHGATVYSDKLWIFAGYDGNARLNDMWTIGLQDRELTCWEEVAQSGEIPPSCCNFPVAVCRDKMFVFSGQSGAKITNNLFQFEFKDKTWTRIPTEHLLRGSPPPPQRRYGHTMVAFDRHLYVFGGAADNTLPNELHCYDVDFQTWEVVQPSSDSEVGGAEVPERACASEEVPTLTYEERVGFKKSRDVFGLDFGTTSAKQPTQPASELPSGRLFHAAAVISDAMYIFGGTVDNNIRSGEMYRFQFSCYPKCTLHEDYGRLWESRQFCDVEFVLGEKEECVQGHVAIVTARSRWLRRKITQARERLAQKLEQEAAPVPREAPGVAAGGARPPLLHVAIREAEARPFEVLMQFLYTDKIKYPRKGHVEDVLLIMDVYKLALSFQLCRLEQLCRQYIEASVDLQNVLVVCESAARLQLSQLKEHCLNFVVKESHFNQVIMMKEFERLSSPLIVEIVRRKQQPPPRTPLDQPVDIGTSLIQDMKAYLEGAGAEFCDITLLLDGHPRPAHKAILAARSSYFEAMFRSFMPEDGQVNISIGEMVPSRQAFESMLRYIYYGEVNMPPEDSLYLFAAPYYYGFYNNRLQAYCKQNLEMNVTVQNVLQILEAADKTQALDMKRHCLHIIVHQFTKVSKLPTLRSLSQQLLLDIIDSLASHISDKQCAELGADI


Assays:
LZTR1 R810W-FLAG = molecular target: T1, LZTR1 R810W-FLAG; assay: IP/MS, LZTR1 R810W-FLAG, U87
In short: (§1)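 Gel slices were reduced with 5 mM DTT, alkylated with 11 mM IAA and digested overnight at 37° C. with trypsin. Peptides were analysed on an Orbitrap Fusion Tribrid by LC-MS/MS.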

LZTR1-FLAG = molecular target: T2, LZTR1-FLAG; assay: IP/MS, LZTR1 wild type-FLAG, U87
In short: as §1

Binder	binding result (LZTR1 R810W-FLAG)	binding result (LZTR1-FLAG)
CELF1 (other, human, UniProt Q92879 1-486, looked up) MNGTLDHPDQPDLDAIKMFVGQVPRTWSEKDLRELFEQYGAVYEINVLRDRSQNPPQSKGCCFVTFYTRKAALEAQNALHNMKVLPGMHHPIQMKPADSEKNNAVEDRKLFIGMISKKCTENDIRVMFSSFGQIEECRILRGPDGLSRGCAFVTFTTRAMAQTAIKAMHQAQTMEGCSSPMVVKFADTQKDKEQKRMAQQLQQQMQQISAASVWGNLAGLNTLGPQYLALYLQLLQQTASSGNLNTLSSLHPMGGLNAMQLQNLAALAAAASAAQNTPSGTNALTTSSSPLSVLTSSGSSPSSSSSNSVNPIASLGALQTLAGATAGLNVGSLAGMAALNGGLGSSGLSNGTGSTMEALTQAYSGIQQYAAAALPTLYNQNLLTQQSIGAAGSQKEGPEGANLFIYHLPQEFGDQDLLQMFMPFGNVVSAKVFIDKQTNLSKCFGFVSYDNPVSAQAAIQSMNGFQIGMKRLKVQLKRSKNDSKPY	binds	binds
CREB3L2 (other, human, UniProt Q70SY1 1-520, looked up) MEVLESGEQGVLQWDRKLSELSEPGDGEALMYHTHFSELLDEFSQNVLGQLLNDPFLSEKSVSMEVEPSPTSPAPLIQAEHSYSLCEEPRAQSPFTHITTSDSFNDDEVESEKWYLSTDFPSTSIKTEPVTDEPPPGLVPSVTLTITAISTPLEKEEPPLEMNTGVDSSCQTIIPKIKLEPHEVDQFLNFSPKEAPVDHLHLPPTPPSSHGSDSEGSLSPNPRLHPFSLPQTHSPSRAAPRAPSALSSSPLLTAPHKLQGSGPLVLTEEEKRTLIAEGYPIPTKLPLSKSEEKALKKIRRKIKNKISAQESRRKKKEYMDSLEKKVESCSTENLELRKKVEVLENTNRTLLQQLQKLQTLVMGKVSRTCKLAGTQTGTCLMVVVLCFAVAFGSFFQGYGPYPSATKMALPSQHSLQEPYTASVVRSRNLLIYEEHSPPEESSSPGSAGELGGWDRGSSLLRVSGLESRPDVDLPHFIISNETSLEKSVLLELQQHLVSAKLEGNETLKVVELDRRVNTTF	binds	binds
ELAC2 (other, human, UniProt Q9BQ52 17-826, looked up) SQGRTISQAPARRERPRKDPLRHLRTREKRGPSGCSGGPNTVYLQVVAAGSRDSGAALYVFSEFNRYLFNCGEGVQRLMQEHKLKVARLDNIFLTRMHWSNVGGLSGMILTLKETGLPKCVLSGPPQLEKYLEAIKIFSGPLKGIELAVRPHSAPEYEDETMTVYQIPIHSEQRRGKHQPWQSPERPLSRLSPERSSDSESNENEPHLPHGVSQRRGVRDSSLVVAFICKLHLKRGNFLVLKAKEMGLPVGTAAIAPIIAAVKDGKSITHEGREILAEELCTPPDPGAAFVVVECPDESFIQPICENATFQRYQGKADAPVALVVHMAPASVLVDSRYQQWMERFGPDTQHLVLNENCASVHNLRSHKIQTQLNLIHPDIFPLLTSFRCKKEGPTLSVPMVQGECLLKYQLRPRREWQRDAIITCNPEEFIVEALQLPNFQQSVQEYRRSAQDGPAPAEKRSQYPEIIFLGTGSAIPMKIRNVSATLVNISPDTSLLLDCGEGTFGQLCRHYGDQVDRVLGTLAAVFVSHLHADHHTGLPSILLQRERALASLGKPLHPLLVVAPNQLKAWLQQYHNQCQEVLHHISMIPAKCLQEGAEISSPAVERLISSLLRTCDLEEFQTCLVRHCKHAFGCALVHTSGWKVVYSGDTMPCEALVRMGKDATLLIHEATLEDGLEEEAVEKTHSTTSQAISVGMRMNAEFIMLNHFSQRYAKVPLFSPNFSEKVGVAFDHMKVCFGDFPTMPKLIPPLKALFAGDIEEMEERREKRELRQVRAALLSRELAGGLEDGEPQQKRAHTEEPQAKKVRAQ	binds	binds
DHX32 (other, human, UniProt Q7L7V1 1-743, looked up) MEEEGLECPNSSSEKRYFPESLDSSDGDEEEVLACEDLELNPFDGLPYSSRYYKLLKEREDLPIWKEKYSFMENLLQNQIVIVSGDAKCGKSAQVPQWCAEYCLSIHYQHGGVICTQVHKQTVVQLALRVADEMDVNIGHEVGYVIPFENCCTNETILRYCTDDMLQREMMSNPFLGSYGVIILDDIHERSIATDVLLGLLKDVLLARPELKLIINSSPHLISKLNSYYGNVPVIEVKNKHPVEVVYLSEAQKDSFESILRLIFEIHHSGEKGDIVVFLACEQDIEKVCETVYQGSNLNPDLGELVVVPLYPKEKCSLFKPLDETEKRCQVYQRRVVLTTSSGEFLIWSNSVRFVIDVGVERRKVYNPRIRANSLVMQPISQSQAEIRKQILGSSSSGKFFCLYTEEFASKDMTPLKPAEMQEANLTSMVLFMKRIDIAGLGHCDFMNRPAPESLMQALEDLDYLAALDNDGNLSEFGIIMSEFPLDPQLSKSILASCEFDCVDEVLTIAAMVTAPNCFSHVPHGAEEAALTCWKTFLHPEGDHFTLISIYKAYQDTTLNSSSEYCVEKWCRDYFLNCSALRMADVIRAELLEIIKRIELPYAEPAFGSKENTLNIKKALLSGYFMQIARDVDGSGNYLMLTHKQVAQLHPLSGYSITKKMPEWVLFHKFSISENNYIRITSEISPELFMQLVPQYYFSNLPPSESKDILQQVVDHLSPVSTMNKEQQMCETCPETEQRCTLQ	binds	binds
CTH (other, human, UniProt P32929 1-405, looked up) MQEKDASSQGFLPHFQHFATQAIHVGQDPEQWTSRAVVPPISLSTTFKQGAPGQHSGFEYSRSGNPTRNCLEKAVAALDGAKYCLAFASGLAATVTITHLLKAGDQIICMDDVYGGTNRYFRQVASEFGLKISFVDCSKIKLLEAAITPETKLVWIETPTNPTQKVIDIEGCAHIVHKHGDIILVVDNTFMSPYFQRPLALGADISMYSATKYMNGHSDVVMGLVSVNCESLHNRLRFLQNSLGAVPSPIDCYLCNRGLKTLHVRMEKHFKNGMAVAQFLESNPWVEKVIYPGLPSHPQHELVKRQCTGCTGMVTFYIKGTLQHAEIFLKNLKLFTLAESLGGFESLAELPAIMTHASVLKNDRDVLGISDTLIRLSVGLEDEEDLLEDLDQALKAAHPPSGSHS	binds	binds
CY P51A1 (other, human, UniProt Q16850 1-509, looked up, Printed as CY P51A1; read as CYP51A1) MAAAAGMLLLGLLQAGGSVLGQAMEKVTGGNLLSMLLIACAFTLSLVYLIRLAAGHLVQLPAGVKSPPYIFSPIPFLGHAIAFGKSPIEFLENAYEKYGPVFSFTMVGKTFTYLLGSDAAALLFNSKNEDLNAEDVYSRLTTPVFGKGVAYDVPNPVFLEQKKMLKSGLNIAHFKQHVSIIEKETKEYFESWGESGEKNVFEALSELIILTASHCLHGKEIRSQLNEKVAQLYADLDGGFSHAAWLLPGWLPLPSFRRRDRAHREIKDIFYKAIQKRRQSQEKIDDILQTLLDATYKDGRPLTDDEVAGMLIGLLLAGQHTSSTTSAWMGFFLARDKTLQKKCYLEQKTVCGENLPPLTYDQLKDLNLLDRCIKETLRLRPPIMIMMRMARTPQTVAGYTIPPGHQVCVSPTVNQRLKDSWVERLDFNPDRYLQDNPASGEKFAYVPFGAGRHRCIGENFAYVQIKTIWSTMLRLYEFDLIDGYFPTVNYTTMIHTPENPVIRYKRRSK	binds	binds
FADS1 (other, human, UniProt O60427 1-444, looked up) MAPDPVAAETAAQGPTPRYFTWDEVAQRSGCEERWLVIDRKVYNISEFTRRHPGGSRVISHYAGQDATDPFVAFHINKGLVKKYMNSLLIGELSPEQPSFEPTKNKELTDEFRELRATVERMGLMKANHVFFLLYLLHILLLDGAAWLTLWVFGTSFLPFLLCAVLLSAVQAQAGWLQHDFGHLSVFSTSKWNHLLHHFVIGHLKGAPASWWNHMHFQHHAKPNCFRKDPDINMHPFFFALGKILSVELGKQKKKYMPYNHQHKYFFLIGPPALLPLYFQWYIFYFVIQRKKWVDLAWMITFYVRFFLTYVPLLGLKAFLGLFFIVRFLESNWFVWVTQMNHIPMHIDHDRNMDWVSTQLQATCNVHKSAFNDWFSGHLNFQIEHHLFPTMPRHNYHKVAPLVQSLCAKHGIEYQSKPLLSAFADIIHSLKESGQLWLDAYLHQ	binds	binds
